assay: yeast display, Sf9 membrane polyspecificity reagent, FACS + sequencing; frameworks hold sequencing errors
Summary of the method: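 After 36–48 hours of galactose induction, yeast (Saccharomyces cerevisiae BJ5465) displaying a synthetic nanobody library were stained at 4 °C for 1 hour with 10% biotinylated, detergent-solubilized Sf9 membrane reagent. Streptavidin microbeads enriched the stained cells before FACS sorting into low and high (top ~1%) gates on anti-HA and streptavidin fluorescence. Each clone's polyreactivity label reflects its gate of origin.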

Sequence | polyreactivity (PSR sort gate)
QDQLVESGGGLVQAGGSLRLSCAASGFTFYRYAMGWYRQAPGKERELVATIRNGGNTNYADSVKGRFTISRDNAKNTVYVQMNSLKPEDTAVYYCAKTVLAGMDWGQGTQVTVSS | high polyreactivity
QDQLVESGGGLVQAGGSLRLSCAASGFTIGYNVMGWYRQAPGKERELVATISWNGARTYYADSVKGRFTISRDNAKNTVYLQMNSLKPEETAVYYCAARRYYRGEYDYWGQGTQVTVSS | low polyreactivity
QDQLVESGGGLVQAGGSLRLSCAASGFTLATYAMGWYSPAPGKEREWVAAITRSGGSTDDADSVKGRFTISRDIAKNTVYVQMNSLKPEDTAVYYCNAREVRYEYNYWGHGTQVTVSS | low polyreactivity
QDQLVESGGGLVQAGGSLRLSCAASGGTFIYNTMGWYRQAPGKERELVAAINSGGSTTYADSVKGRFTISRDNAKNTVYLQMNSLKPEDTAVYYCAAVYVYLGVYARYPIWGYYYWGQGTQVTVSS | low polyreactivity
QDQLVESGGGLVQAGGSLRLSCAASGIIFQYYAMGWYRQAPGKERELVAAISWSGGSTYYADSVKGRFTISRDNAKNTVYLQMNSLKPEDTAVYYCAARSRSYWPYEGDYWGQGTQVTVSS | low polyreactivity
QDQLVESGGGLVQAGGSLRLSCAASGIILDHYSMGWYRQAPGKERELVAAISSGTRTNYADSVKGRFTISRDNAKHTVSLQMNSLKPEDTAVYYCAATIYRRYRSKYSITSYWGQGTQVTVSS | high polyreactivity
QDQLVESGGGLVQAGGSLRLSCAASGITFVYYAMGWYRQAPGKERELVAAITGSGDSTYYADSVKGRFTISRDNAKNTVYLQMNSLKPEDTAVYYCAAEAWWYGGFGYWGQGTQVTVSS | high polyreactivity
QDQLVESGGGLVQAGGSLRLSCAASGITFWYYAMGWYRQAPGKERELVAAITRSGRTNYADSVKGRFTISRDYAKNTVYLQMNILKPEDTAVYYCAVDLYSFSPRYYYWGQGTQVTVSS | low polyreactivity
QDQLVESGGGLVQAGGSLRLSCAASGLIFSYYAMGWYRQAPGKERELVAAIDWISGSKYYADSVKGLFTISRDNAKNTVYLQMNSLKPEDTAVYYCAAYGSFWYARFGYCGQGTQVTVSS | low polyreactivity
QDQLVESGGGLVQAGGSLRLSCAASGLIFYEYAMGWYRQAPGKERELVAAISRGGRTYYADSVKGRFTISRDNAKNTVYLQMNSLKPEDTAVYYCADRHWPEKYDYWGQGTHVTVSS | high polyreactivity
QDQLVESGGGLVQAGGSLRLSCAASGLTFDKYVMGWYRQAPGKERELVAAITKGGGSTYYADSVKGRFTISRDNAKNTVYLQMNSLKPEDTAVYYCAVTRPLRYWGQGTQVTVSS | high polyreactivity
QDQLVESGGGLVQAGGSLRLSCAASGLTFDRYTMGWYRQAPGKERELVAAITRGGGNTYYADSVKGRFTISRDNAKNTVYLQMNSLKPEDTAVYYCAANRRDGYDYWGQGTQVTVSS | low polyreactivity
QDQLVESGGGLVQAGGSLRLSCAASGLTFRKNAMGWSRQAPGKERELVAAISTGGRTYYADSVKGRFTISRDNAKNTVYLQMNSLKPEDTAVYYCNTVYVKSGLDYWGQGTQVTVSS | high polyreactivity
QDQLVESGGGLVQAGGSLRLSCAASGNIIVEKAMGWYRQAPGTERELVAVSTSGTSTYADSVKGRFTISRDNAKNTVYLQMYSLKPEDTAVYYCNKRQVFVSTGEYEFDYWGQGTQVTVSS | low polyreactivity
QDQLVESGGGLVQAGGSLRLSCAASGNIYPYAMGWYRQAPGKEREFVAAIRYSGGITYYADSVKGRFTISRDNAKNTVYLQMNSLKPEDTAVYYCAAYGWGNRWYSRFDYWGQGTQVTVSS | high polyreactivity
QDQLVESGGGLVQAGGSLRLSCAASGRIFDTYAMGWYRQAPGKERELDAAITRRGGSTYYADSVKGRFTISRDIAKNTVYLQMNSLKPEDTAVYYCAKSLVNRHYDYWGQGTQVTVSS | low polyreactivity
QDQLVESGGGLVQAGGSLRLSCAASGRIFGLYAMGCYRPAPGKERELVAAYADSVKGRFTISRDNAKNTVYLQMNSLKPEDTAVYYCAKGPLYAGYSIHLRDFNYWGQGTQVTVSS | low polyreactivity
QDQLVESGGGLVQAGGSLRLSCAASGRIFGTYAMGWYRQAPGKERELVATISYSSGRTYYADSVKGRFTISRDNAKNTVYLQMNSLKPEDTAVYYCAAVGTGSSLRYDYWGQGTQVTVSS | high polyreactivity
QDQLVESGGGLVQAGGSLRLSCAASGRIFSVNAMGWYRQAPGKERELVAAISRRGTSTFYADSVKGRFTISRDNAKNTVYLQMNSLKPEDTAVYYCAADFYPYQYKFDYWGQGTQVTVSS | high polyreactivity
QDQLVESGGGLVQAGGSLRLSCAASGRLIPSYVMGGYRPAQGKETEFVAGIRRGGGSTYYADSVKGRFTISRDNAKNTVYLQMNSLKPEDTAVYYSAAVKYSRPGVYHGHDSWRQGTQVTVSS | high polyreactivity
QDQLVESGGGLVQAGGSLRLSCAASGRTFAYKVMGWYRQAPGNERELVAANSRGGGRTYYADSVKGRFTISRDNAKNTVYLQMNSLKPEDTAVYYCNAASSGLSGRLTSIINDYWGQGTQVTVSS | high polyreactivity
QDQLVESGGGLVQAGGSLRLSCAASGRTFDNYAMGWYRQAPGKERELVARITDTGGSTYYADSVKGRFTISRDNAKNTVYLQMNSLKPEDTAVYYCAADSYPFAWYWLYYYWGQGTQVTVSS | low polyreactivity

Sequence | polyreactivity (PSR sort gate)
QDQLVESGGGLVQAGGSLRLSCAASGRTFGTYAMGWYRQAPGKERELVAAISSSGGRTYYADSVKGRFTISRDNAKNTVYVLMHSLKPEVTAVYYFAKSRYATQTDYNYWGQGTQVTVSS | high polyreactivity
QDQLVESGGGLVQAGGSLRLSCAASGRTFKINAMGWYRHAPGTERELVAAITYSGCTTYYADSVKGRFTISRDNAKNTVYLQMNSLKPEDTAVYYCATPSRKSGVGYPSYNYWGQGTQVTVSS | high polyreactivity
QDQLVESGGGLVQAGGSLRLSCAASGRTFLRNAMGWYRQAPGKERELVAAISRSGGSTYYADSVKGRVTISRDNAKNTVYLQMNSLKPEDTAVYYCAADDYGGYYYWGQGTQVTVSS | high polyreactivity
QDQLVESGGGLVQAGGSLRLSCAASGRTFNYNTMGWYIQAPGKERELVAAINKGGTRTYYADSVKGRFTISRDNAKNTVYLEMNSLKPEDTAVYYCAARLYSYDYWGQGTQVTVSS | high polyreactivity
QDQLVESGGGLVQAGGSLRLSCAASGRTFNYYGMGWYRQAPGKERELVAAISRGGTTNYADSVKGRFTISRDNAKNTVYLQMNSLKPEDTAVYYCAKGRSHWHSYQYVRPNYDYLGQGTQVTVSS | high polyreactivity
QDQLVESGGGLVQAGGSLRLSCAASGRTFPRNGMGWYRQAPGKERELVAAISWSGGRTYYADSVKGRFTISRDNAKNTVYLQMNSLKPEDTAVYYCNALYFRKGGYWGQGTQVTVSS | high polyreactivity
QDQLVESGGGLVQAGGSLRLSCAASGRTFTFNTMGWYRQAPGKERELVAAIVGDGTTNYADSVKGRFTISRDNAKNTVYLQMYSLKPEDTAVYYCAADFLYSFWYEPTFDYWGQGTQVTVSS | low polyreactivity
QDQLVESGGGLVQAGGSLRLSCAASGRTFTVYAMGWYRPAPGKEREMVAAISRSGGRTYYADSVKGRFTISRDNAMNTVYLQRNSLKPEDTAVYYCAADVPYRTNDFDYWGQGTQVTVSS | high polyreactivity
QDQLVESGGGLVQAGGSLRLSCAASGRTFVGYAMGWYRQAPGKERELVAAITSGGRTNYADSVKGRCTISRDNAKNTVYLQMTSLKPEDTAVYYCNARTRHRGQIALDYWGQGTQVTVSS | high polyreactivity
QDQLVESGGGLVQAGGSLRLSCAASGRTFVKYAMGWYRQAPGKERELVAAISRRGGSTYYADSVKGRFTISRDNAKNTVYLQMNSLKPEDTAVYYCAVSIGRYPYRYGYWGQGTQVTVSS | high polyreactivity
QDQLVESGGGLVQAGGSLRLSCAASGRTFYLYAMGWYSQAPGKEREFVAVINSSGGSTYYADSVKGRFTISRDNAKNTVYLQMNSLKPEDTAVYYCAAYPIPRGRDYWGPGTQVTVSS | low polyreactivity
QDQLVESGGGLVQAGGSLRLSCAASGRTYGSYAMGWYRQAPGQEMELVAAISRSDGSTYYADSVKGRFTISRDNAKNTVYLQMNSLKPEDTAVYYCAAKRWYVSYDYDYWGQGTQVTVSS | high polyreactivity
QDQLVESGGGLVQAGGSLRLSCAASGSIFLDNAMGWYRQAPGKERELVAAISKSGTRTYYADSVKGRFTISRDNAKNTVYLQMNSLKPEDTAVYYCNVVPKQAKSVELIGYYYWGQGTQVTVSS | high polyreactivity
QDQLVESGGGLVQAGGSLRLSCAASGSIFRYYAMGWYIQAPGKERELVAAITNSGGSTYYADSVKGRFTISRDNAKNTVYLQMNSLKPEDTAVYYCNARFRARPRMGYWGQGTQVTVSS | high polyreactivity
QDQLVESGGGLVQAGGSLRLSCAASGSIFTHNAMGWYRQAPGKERELVAAISSGGSTNYADSVKGRFTFSRDNAKNTVYLQMNSLKPEDTAVYYCAKSIDGWYWRRRRYDYWGQGTQVTVSS | low polyreactivity
QDQLVESGGGLVQAGGSLRLSCAASGSIFTKYAMGLYRQAPGKEREFVAAIDVNGGSTRYADSVKGRFTISRDYANNTVYLQMYSLKPEDTAVYYCAKDYTASYYPQGLYDYWGQGTQVTVSS | low polyreactivity
QDQLVESGGGLVQAGGSLRLSCAASGSIFVENDMGWYRQAPGKERELVAVITSGGSTYYADSVKGRFTISRDNAKNTVYLQMNSLKPEDTAVYYCNKDYAAIDRYDSWGQGTQVTVSS | low polyreactivity
QDQLVESGGGLVQAGGSLRLSCAASGSIFVSYTMGWYRQAPGKERELVAAITRSGGSTYYADSVKGRFTISRDNAKNTVYLQLNSLKPEDTAVYYCNATPANKYYRSTRGYAYNYWGQGTQVTVSS | low polyreactivity
QDQLVESGGGLVQAGGSLRLSCAASGSIFVYNTMGWYRQAPGKERELVAAISSSGGSTYYADSVKGRFTISRDNAKNTVYLQMNSLKPEDTAVYYCAAVNGYQYAPYYYNGYDFWGQGTQVTVSS | low polyreactivity
QDQLVESGGGLVQAGGSLRLSCAASGSIFWSNAMGWYRQAPGKERELVASISSSGSTYYADSVKGRFTISRDNAKNTVYLQMNSLKPEDTGVYYCAAGSAYYSQRYFAYGYDSWGQGTQVTVSS | low polyreactivity
QDQLVESGGGLVQAGGSLRLSCAASGSILIHNAMGWSRQAPGKERELVAAITSGGSTNYADSVKGRFTISRDNAKNTVYLQMNSLKPEDTAVYYCATAVGRVLVGYDYWGQGTQVTLSS | low polyreactivity

From the nanobody polyreactivity screen of Harvey et al. (2022)
